Test results published in the RNAGym collection of RNA variant scans (doi:10.7554/elife.90254).

B1: OR4K15 (parent)
chain: GUUAACGGUCAUAGGCCAUGGAAACUAGGAGCACCAUUUCGCUGCCAGUGAAGAAAUGAACAAAGAAAAUCUGGGCCAGGCAGGCAUCAAAAGAAAUAGUCUUGCGCUCAACCAGAAAGUCUGUAAUCAUUUUAAGGGUA

Variants of: B1
Assay: self-cleavage, relative activity (ratio to wild type); higher = more cleavage; in vitro, sequencing; the parent is a self-cleaving ribozyme

Row | Variant | self-cleavage
1 | GUUAACGGUCAUAGGCCAUGGAAACUAGGAGCACCAUUUCGCUGCCAGUGAAGAAAUGAACAAAGAAAAUCUGGGCCGGGCAGGCAUCAAAGGAAAUAGUCUUGCGCUCAACCAGAAAGUCUGUAAUCAUUUUAAGGGUA [A78G A92G] | 0.13
2 | GUUGACGGUCAUAGGCCAUGGAAACUAGGAGCACCAUUUCGCUGCCAGUGAAGAAAUGAACAAAGAGAAUCUGGGCCAGGCAGGCAUCAAAAGAAAUAGUCUUGCGCUCAACCAGAAAGUCUGUAAUCAUUUUAAGGGUA [A4G A67G] | 1.16
3 | GUUAACGGUCAUAGGCCAUGGAAACUAGGAGCACCAUUUCGCUGCCAGUGGAUAAAUGAACAAAGAAAAUCUGGGCCAGGCAGGCAUCAAAAGAAAUAGUCUUGCGCUCAACCAGAAAGUCUGUAAUCAUUUUAAGGGUA [A51G G53U] | 1.66
4 | GUCAACGGUCAUAGGCCAUGGAAACUAGGAGCACCAUUUCGCUGCCAGUGAAGAAAUGAACAAAGAAAAUCUGGGCCAGGCAGGCCUCAAAAGAAAUAGUCUUGCGCUCAACCAGAAAGUCUGUAAUCAUUUUAAGGGUA [U3C A86C] | 0.37
5 | GUUAACGGUCAUAGGCCAUGGAAACUAGGAGCACCAUUUCGCAGCCAGUGAAGAAAUGAACAAAGAAAAUCUGGGCCAGGCAAGCAUCAAAAGAAAUAGUCUUGCGCUCAACCAGAAAGUCUGUAAUCAUUUUAAGGGUA [U43A G83A] | 1.97
6 | GUUAACGGUCAUAGGCCAUGGAAACUAGGAGCACCAUUUCGCUGCCAGUGAAGAAAUGAACAAAGAAAAUCUGGGCCAGGCAGGCAUCAAAAGAAGUAGUCUUGCGCUCAACCAGAUAGUCUGUAAUCAUUUUAAGGGUA [A96G A117U] | 0.89
7 | GUUAACGGUCAUAGGCCAUGGAAACUAGGAGCUCCAUUUCGCUGCCAGUGAAGAAAUGAACAAAGAAAAUCUGGGCCAGGCAGGCAUCAAAAGAAAUAGUCUUGCGCUCAACCAGAAAGCCUGUAAUCAUUUUAAGGGUA [A33U U120C] | 1.32
8 | GUUAACGGUCAUAGGCCAUGGAAACUAGGAUCACCAUUUCGCUGCCAGUGAAGAAAUGAACAAAGAAAAUCUGGGCCAGGCAGGCAUCAAAAGAAAUAGUCUUGCGCUCGACCAGAAAGUCUGUAAUCAUUUUAAGGGUA [G31U A110G] | 0.24
9 | GUUAACGGUCAUAGGCCAUGGAAACUAGGAGCACCAUUUCGCUGCCGGUGAAGAAAUGAACAAAGAAAAUCUGGGCCAGGCAGCCAUCAAAAGAAAUAGUCUUGCGCUCAACCAGAAAGUCUGUAAUCAUUUUAAGGGUA [A47G G84C] | 0.24
10 | GUUAACGGUCAUAGGCCAUGGAAACUAGGAGCACCAUUUCGCUGCCAGUGAAGAAAUGAACAAAGAAAAUCUGGGCCAGGCAGGCAUCAAGAGAAAUAGUCUUGCGCUCAACCAGAAAGUCUGUAAUCAUUUUAAGGAUA [A91G G138A] | 0.95
11 | GUUAACGGUCAUAGGCCAUGGAAACUAGGAGCACCAUUUCGCUGCCAGUGACGAAAUGAACAAAGAAAAUCUGGGCCAGGCAGUCAUCAAAAGAAAUAGUCUUGCGCUCAACCAGAAAGUCUGUAAUCAUUUUAAGGGUA [A52C G84U] | 0.51
12 | GUUAACGGUCAUAGGCCAUGGAAACUAGGAGCACCAUUUCGCUGCCAGUGAGGAAAUGAACAAAGAAAAUCUGGGCCAGGCAGGCAUCAAAAGAAAUAGUCUUGCGCUCAACCAGAAAGUCUGUAAUCAUUUCAAGGGUA [A52G U133C] | 1.33
13 | GUUAACGGUCAUAGGCCAUGGAAACUAGGAGCACCAUUUCGCUACCAGUGAAGAAAUGAACAAAGAAAAUCUGGGCCGGGCAGGCAUCAAAAGAAAUAGUCUUGCGCUCAACCAGAAAGUCUGUAAUCAUUUUAAGGGUA [G44A A78G] | 0.24
14 | GUUAACGGUCAUAGGCCAUGGAAACUAGGAGCACCAUUUCGCUGCCAGUGAAGAAAUGAACAAAGAAAAUCUGGGCCAGGCAGGCACCAAUAGAAAUAGUCUUGCGCUCAACCAGAAAGUCUGUAAUCAUUUUAAGGGUA [U87C A91U] | 1.35
15 | GUUAACGGUCAAAGGCCAUGGAAACUAGGAGCACCAUUUCGCUGCCAGUGAAGAAAUGAACAAAGAAAAUCUGGGCCAGGCAGGCAUCAAAAGGAAUAGUCUUGCGCUCAACCAGAAAGUCUGUAAUCAUUUUAAGGGUA [U12A A94G] | 1.12
16 | GUUAACGGUCAUAGGCCCUGGAAACUAGGAGCACCAUUUCGCUGCCAGUGAAGAAAUGAACAAAGAAAAUCUGGGCCAGGCAGGCAUCAAAAGAAAUAGUCUUGCGCUCAACCAGAAAGUCUGUAAUCACUUUAAGGGUA [A18C U130C] | 0.96
17 | GUUAACGGUCAUAGGCCAUAGAAACUAGGAGCACCAUUUCGCUGCCAGCGAAGAAAUGAACAAAGAAAAUCUGGGCCAGGCAGGCAUCAAAAGAAAUAGUCUUGCGCUCAACCAGAAAGUCUGUAAUCAUUUUAAGGGUA [G20A U49C] | 1.6
18 | GUUAACGGUCAUAGGCCAUGGAAACUAGGAGCACCAUUUCGCUGCCAGUGAAGAAAUGAACAAAGAAAAUCUGGGCCGGGCAGGCAUCAAAAGAAAUAGUCUUGCGCUCAACCAGAAAGUCGGUAAUCAUUUUAAGGGUA [A78G U122G] | 0.15
19 | GUUACCGGUCAUAGGCCAUGGAAACUAGGAGCACCAUUUCGCUGCCAGUGAAGAAAUGAACAAAGAAAAUCUGGGCCAGGCAGGCAUCAAAAGAAAUAGUCUUGCGCUCAACCAGAAAGUCCGUAAUCAUUUUAAGGGUA [A5C U122C] | 0.99
20 | GUUAACGGUCAUAGGCCAUGGAAACUAGGAGCACCAUUUCGCUGCCAGUGAAGAAAUGAACAAGGAAAAUCUGGGCCAGGCAGGCAUCAAAAGAAAUCGUCUUGCGCUCAACCAGAAAGUCUGUAAUCAUUUUAAGGGUA [A64G A98C] | 1.73
21 | GUUAACGGUCAUAGGCCAUGGAAACUAGGAGCACCAUUUCGCUGCCAGUGAAGAAAUGAACAAAGAAAAUCUGGGCCAGGCAGGCAUCAAAAGAACUAGUCUUGCGCUCAACCAGAGAGUCUGUAAUCAUUUUAAGGGUA [A96C A117G] | 1.87
